The values that follow are results of earlier work, collected in PMC4650670.

A word on the Kd: it is the concentration at which binding is half-saturated.

This data set addresses actin (Oryctolagus cuniculus) (UniProt P68135).

As to “nebulin repeat fragment (from UniProt P20929)”, the Kd is 220 µM.
